According to patent US20230235040A1 (ALMIRALL S A, published 2023):
Substitutions are numbered along the chain they refer to.

T1: hu-IL-36α (human IL-36α, N-terminally truncated active form K6-F158) (human, UniProt Q9UHA7 6-158)
T1 sequence: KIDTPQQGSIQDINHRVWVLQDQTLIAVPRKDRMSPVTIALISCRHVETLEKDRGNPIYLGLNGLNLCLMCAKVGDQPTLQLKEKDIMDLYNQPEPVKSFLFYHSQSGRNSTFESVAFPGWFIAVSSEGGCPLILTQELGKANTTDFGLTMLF

T2: hu-IL-36γ (human IL-36γ, N-terminally truncated active form S18-D169) (human, UniProt Q9NZH8 18-169)
T2 sequence: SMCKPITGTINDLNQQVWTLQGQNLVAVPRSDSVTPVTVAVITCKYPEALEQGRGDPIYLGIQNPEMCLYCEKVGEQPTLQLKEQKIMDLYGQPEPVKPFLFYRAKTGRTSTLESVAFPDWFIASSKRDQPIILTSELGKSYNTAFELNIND

T3: cy-IL-36α (cynomolgus monkey IL-36α, K6-F158) (cynomolgus monkey, UniProt Q9UHA7 14-158 (human entry))
T3 construct: Purification tag cleaved off
T3 chain: T1 sequence with I2S, D3E, T4M, Q7P, G8V, T24I, M34V, A40S, V74A

T4: cy-IL-36γ (cynomolgus monkey IL-36γ, S18-K168) (cynomolgus monkey, UniProt Q9NZH8 18-167 (human entry))
T4 construct: Purification tag cleaved off
T4 chain: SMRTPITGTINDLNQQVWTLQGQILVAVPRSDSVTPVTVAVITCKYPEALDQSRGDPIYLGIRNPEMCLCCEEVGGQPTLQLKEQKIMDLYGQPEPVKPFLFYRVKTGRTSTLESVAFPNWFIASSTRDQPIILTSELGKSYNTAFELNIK

T5: hu-IL-36β (human IL-36β, N-terminally truncated active form R5-E157) (human)
T5 chain: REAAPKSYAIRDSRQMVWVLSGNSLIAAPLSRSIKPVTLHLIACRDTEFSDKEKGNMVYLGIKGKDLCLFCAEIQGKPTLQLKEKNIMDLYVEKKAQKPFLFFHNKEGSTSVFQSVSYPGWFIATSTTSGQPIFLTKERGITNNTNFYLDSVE

B1: mAb1.0 Fab (yeast clone culture supernatant) (Fab, V domains shown)
VH: QVQLVESGGGVVQPGRSLRLSCAASGFSFSAYAMHWVRQAPGKGLEWVAVISYDGTNEYYADSVKGRFTISRDNSKNTLYLQMNSLRAEDTAVYYCARGIRIFTSYFDSWGQGTLVTVSS
VL: QSVLTQPPSVSGAPGQRVTISCTGSSSNIGAHYDVHWYQQLPGTAPKLLIYSNNNRPSGVPDRFSGSKSGTSASLAITGLQAEDEADYYCQSYDYSLRGYVFGGGTKLTVL
notes: Human Fab secreted by the yeast clone, not purified
B2: mAb4.0 Fab (yeast clone culture supernatant) (Fab, V domains shown)
VH: QLQLQESGPGLVKPSETLSLTCTVSGGSIGSRSYYWGWIRQPPGKGLEWIGSIHYSGTTYYNPSLKSRVTISVDTSKNQFSLKLSSVTAADTAVYYCARVAPSYPRVFDYWGQGTLVTVSS
VL: B1 VL with H32G, S52G, N54R, G99V
notes: as for B1
B3: mAb6_2 Fab (Fab, V domains shown)
VH: ELQLQESGPGLVKPSETLSLTCTVSGGSITSSNYYWGWIRQPPGKGLEWIGSIDYTGSTYYNPSLKSRVTISVDTSKNQFSLKLSSVTAADTAVYYCARGKYYETYLGFDVWGQGTLVTVSS
VL: B1 VL with Q1E, S52G, N54D, R98S
B4: mAb3.0 Fab (yeast clone culture supernatant) (Fab, V domains shown)
VH: QLQLQESGPGLVKPSETLSLTCTVSGGSISSTSYYWGWIRQPPGKGLEWIGSIHYSGNTYYNPSLKSRVTISVDTSKNQFSLKLSSVTAADTAVYYCARVHYGGYIPRRFDHWGQGTLVTVSS
VL: B1 VL with H32G, S52G, N54T
notes: as for B1
B5: mAb5.0 Fab (yeast clone culture supernatant) (Fab, V domains shown)
VH: EVQLLESGGGLVQPGGSLRLSCAASGFTFSTYAMSWVRQAPGKGLEWVSGISGGSGYTYYADSVKGRFTISRDNSKNTLYLQMNSLRAEDTAVYYCARVVTYRDPPASFDYWGQGTLVTVSS
VL: B1 VL with S52G, N54D, R98K, G99A
notes: as for B1
B6: mAb6_2.4 Fab (Fab, V domains shown)
VH: B3 VH with S31A, R99T
VL: B1 VL with Q1E, S52G, N54D, R98S
notes: Purified Fab
B7: mAb6_2.1 Fab (Fab, V domains shown)
VH: B3 VH with S32T, S52N, P63A, R99T
VL: B1 VL with Q1E, S52G, N54D, R98S
notes: Purified Fab (Biacore, HaCat assay)
B8: mAb6_2.2 Fab (Fab, V domains shown)
VH: B3 VH with Y34A, Y60A, R99H
VL: B1 VL with Q1E, S52G, N54D, R98S
notes: as for B7
B9: mAb6_2.3 Fab (Fab, V domains shown)
VH: B3 VH with S31A, P63T, R99T
VL: B1 VL with Q1E, S52G, N54D, R98S
notes: as for B7
B10: mAb2.0 Fab (yeast clone culture supernatant) (Fab, V domains shown)
VH: B4 VH with S31T, T32S, H54Y, S56T, H101R, G104V, Y105G, I106V, R109Y, H112P
VL: B1 VL with S52G, N54D, R98S
notes: as for B1
B11: mAb8.0 recombinant human IgG1 (antibody, V domains shown)
VH: QVQLVQSGAEVKKPGSSVKVSCKASGGTFSNYAISWVRQAPGQGLEWMGGILPILGTVDYAQKFQGRVTITADESTSTAYMELSSLRSEDTAVYYCAREPWYRLGAFDVWGQGTLVTVSS
VL: DIQMTQSPSSLSASVGDRVTITCRASQTIYKYLNWYQQKPGKAPKLLIYAASSLQSGVPSRFSGSGSGTDFTLTISSLQPEDFATYYCQQYSSIPYTFGQGTKVEIK
B12: mAb7.0 recombinant human IgG1 (antibody, V domains shown)
VH: QVQLVESGGGVVQPGRSLRLSCAASGFTFSSYGMHWVRQAPGKGLEWVAVISYGGSERYYADSVKGRFTISRDNSKNTLYLQMNSLRAEDTAVYYCAREPWYSSRGWTGYGFDVWGQGTLVTVSS
VL: EIVLTQSPGTLSLSPGERATLSCRASQSVSSNYLAWYQQKPGQAPKLLIYSASSLQSGVPSRFSGSGSGTDFTLTISSLQPEDFATYYCQQTYSYPPTFGQGTKVEIK

Tests used:
[1] = target: T1, hu-IL-36α (human IL-36α, N-terminally …); test: cell-based or functional assay
[2] = target: T2, hu-IL-36γ (human IL-36γ, N-terminally …); test: cell-based or functional assay
[3] = target: T1, hu-IL-36α (human IL-36α, N-terminally …); test: ELISA, yeast Fab supernatant, anti-Fab-HRP
[4] = target: T2, hu-IL-36γ (human IL-36γ, N-terminally …); test: ELISA, yeast Fab supernatant, anti-Fab-HRP
[5] = target: T3, cy-IL-36α (cynomolgus monkey IL-36α, …); test: ELISA on coated cy- and hu-IL-36α, yeast Fab supernatant; ratio of OD450
Experimental: (§1) Cell supernatants from yeast clones of interest were tested for binding to human IL-36 by ELISA as described above. To compare the binding of these supernatants to human and cynomolgus monkey IL-36, IL-36 proteins were coated at 2.5 μg/mL on 96-well Nunc MaxiSorp plates (Thermo Fisher) and the plates blocked with 5% goat serum in PBS. Yeast supernatants were diluted 1:1 with PBST containing 1% w/v BSA and added to the ELISA plates for 1-1.5 hours with agitation. Bound Fab was detected by incubating the plates with F(ab′)2-HRP (Jackson ImmunoResearch). The ELISAs were developed for 3-10 minutes by addition of 50 μL/well of tetramethylbenzidine (TMB) microwell peroxidase substrate (Scytek Laboratories, Inc., Logan, Utah, USA) and enzymatic color development was stopped by acidification with 50 µL/well of 2 N H₂SO₄ (Sigma-Aldrich Corporation, St. Louis, Mo., USA). The optical density of the samples at a wavelength of 450 nm (OD450) was analyzed with a SpectraMax i3X plate reader (Molecular Devices LLC, San Jose, Calif., USA). To estimate the relative affinity of each clone for cynomolgus monkey IL-36 and human IL-36 in this assay, a ratio of OD450 (OD450_cyIL-36/OD450_huIL-36) was calculated for each clone and IL-36 cytokine.

[6] = target: T4, cy-IL-36γ (cynomolgus monkey IL-36γ, …); test: ELISA on coated cy- and hu-IL-36γ, yeast Fab supernatant; ratio of OD450
Experimental: as §1

[7] = target: T5, hu-IL-36β (human IL-36β, N-terminally …); test: cell-based or functional assay
[8] = target: T5, hu-IL-36β (human IL-36β, N-terminally …); test: SPR (Biacore), purified Fab, biotinylated hu-IL-36β captured
[9] = target: T5, hu-IL-36β (human IL-36β, N-terminally …); test: SPR (Biacore 8K), biotinylated hu-IL-36β captured on CAP chip, Fab injected, 37°C
Experimental: Briefly, a 1:4 dilution of Biotin CAPture Reagent (GE) into HBS-EP buffer (0.01 M HEPES pH 7.4, 0.15 M NaCl, 3 mM EDTA, 0.005% Surfactant P20) was applied to a CAP sensor chip at 2 uL/min flow rate. For kinetics measurements, 6 nM biotinylated human IL-36β was captured at 10 uL/min to achieve ˜50 response units in the second flow cell (FC2). FC1 was kept as a reference. […] The sensorgram was recorded and subject to reference and buffer subtraction before evaluating by BIACORE® 8K Evaluation Software (version 1.1.1.7442). Association rates (kₒₙ) and dissociation rates (koff) were calculated using a simple one-to-one Langmuir binding model.

[10] = target: T5, hu-IL-36β (human IL-36β, N-terminally …); test: phage competition ELISA: Fab on phage, soluble hu-IL-36β titrated against coated hu-IL-36β
Experimental: Selected phages with top binding signal were purified to perform phage competition ELISA. The optimal phage concentration was incubated with serially-diluted human IL-36β in ELISA buffer (0.5% BSA and 0.05% TWEEN©20 in PBS) in NUNC F plate for two hours. 80 μl of the mixture was transferred to human IL-36β coated wells for 15 min to capture unbound phage. The plate was washed with wash buffer (0.05% TWEEN©20 in PBS), and HRP-conjugated anti-M13 antibody (Sino biological, Cat #11973-MM05-H-50) was added in ELISA buffer for 30 min. The plate was incubated at room temperature for one hour with agitation, washed six times with wash buffer and developed for 15 minutes by addition of 100 μL/well of 1 Step Turbo™ B substrate (ThermoFisher, Cat #34022). The enzymatic reaction was stopped using 50 μL/well of 2N H₂SO₄. Plates were analyzed using a Perkin Elmer plate reader (Envision 2103 multilabel reader) at 450 nm. The absorbance at 450 nm was plotted as a function of antigen concentration in solution to determine phage IC₅₀. […] Real affinities for purified Fab molecules for the phage variants were also measured using Biacore (method described in detail in section E below).

[11] = target: T5, hu-IL-36β (human IL-36β, N-terminally …); test: cell-based or functional assay

Binder	% Inhibition, HEK-Blue IL-36R SEAP reporter assay [1]	% Inhibition, HEK-Blue IL-36R SEAP reporter assay [2]	ELISA OD450 [3]	ELISA OD450 [4]	ELISA OD450cyIL-36/OD450hu-IL-36 [5]	ELISA OD450cyIL-36/OD450hu-IL-36 [6]	IC50, IL-36-stimulated IL-8 secretion by HaCat cells [7]	Kd [8]	further results
B1	70%	31%	0.94 OD450	2.43 OD450	0.6 ratio	1.3 ratio			
B2	91%	57%	2.16 OD450	2.3 OD450	0.5 ratio	1.2 ratio			
B3							3.19 nM		apparent Kd (pooled screen) [8]: 40.1 nM; apparent Kd (pooled screen) [9]: 14.7 nM; apparent koff (pooled screen) [9]: 0.00128 s⁻¹; apparent kon (pooled screen) [9]: 87200 M⁻¹ s⁻¹; apparent IC50 (pooled screen) [10]: 8.57 nM
B4	40%	64%	1.63 OD450	2.11 OD450	0.5 ratio	1 ratio			
B5	75%	75%	2.05 OD450	2.08 OD450	0.5 ratio	1 ratio			
B6							0.13 nM	1.05 nM	
B7							1.64 nM	3.5 nM	IC50 [10]: 0.77 nM
B8							2.22 nM	2.55 nM	IC50 [10]: 1.04 nM
B9							1.31 nM	1.62 nM	IC50 [10]: 0.49 nM
B10	91%	89%	2.53 OD450	2.5 OD450	0.7 ratio	1.2 ratio			
B11									IC50, HEK-Blue IL-36R SEAP reporter assay [11]: 0.34 nM
B12									IC50, HEK-Blue IL-36R SEAP reporter assay [11]: 1.4 nM
